Measured values from patent publication US20220064291A1, “METHODS OF USING BUTYROPHILIN ANTIBODIES FOR TREATING HIV INFECTION” (Merck Sharp & Dohme Corp., priority 2018, published 2022).

B1: 3A (antibody, V domains shown)
VH: QVQLVQSGAEVKKPGASVKVSCKASGYTFTSYYMHWVRQAPGQGLEWMGIINPGGGSTSYAQKFQGRVTMTRDTSTSTVYMELSSLRSEDTAVYYCARDAGHDYGDMAYWGQGTLVTVSS
VL: DIQMTQSPSTLSASVGDRVTITCRASQSISSWLAWYQQKPGKAPKLLIYKASSLESGVPSRFSGSGSGTEFTLTISSLQPDDFATYYCQQYRSFPTFGGGTKVEIK
B2: 1G (antibody, V domains shown)
VH: QVQLVQSGAEVKKPGASVKVSCKASGYTFTSYGISWVRQAPGQGLEWMGWISAYNGNTNYAQKLQGRVTMTTDTSTSTAYMELRSLRSDDTAVYYCARLGATVAYFDLWGRGTLVTVSS
VL: EIVLTQSPATLSVSPGERATLSCRASQSVSSNLAWYQQKPGQAPRLLIYGASTRATGIPARFSGSGSGTEFTLTISSLQSEDFAVYYCQQDVYWPFTFGGGTKVEIK
B3: 3B (antibody, V domains shown)
VH: QVQLVQSGAEVKKPGASVKVSCKASGYTFTSYYMHWVRQAPGQGLEWMGIINPSGGSTSYAQKFQGRVTMTRDTSTSTVYMELSSLRSEDTAVYYCARPSGDYSGYDALDVWGQGTMVTVSS
VL: EIVLTQSPATLSLSPGERATLSCRASQSVSSYLAWYQQKPGQAPRLLIYDASNRATGIPARFSGSGSGTDFTLTISSLEPEDFAVYYCQQDPYWPITFGGGTKVEIK
B4: 2A (antibody, V domains shown)
VH: QVQLVQSGAEVKKPGASVKVSCKASGYTFTSYYIHWVRQAPGQGLEWMGIINPSGGSTSYAQKFQGRVTMTRDTSTSTVYMELSSLRSEDTAVYYCARATWEALHYWGQGTLVTVSS
VL: EIVMTQSPATLSVSPGERATLSCRASQSVGSNLAWYQQKPGQAPRLLIYGASTRATGIPARFSGSGSGTEFTLTISSLQSEDFAVYYCQQYYAWPRTFGGGTKVEIK

Legend:
[1] = system: HIV latent primary CD4+ T cells; assay: T cell activation by plate-coated anti-BTN3A antibody plus anti-CD3, IFNγ expression (V-PLEX); type: cell-based, human; conditions: production of IFNγ, with anti-CD3, Yes/No
Experimental: (§1) Latent HIV-1 infected primary CD4+ T cells were generated following a protocol licensed from the laboratory of Jonathan Karn (Case Western Reserve University, Cleveland, Ohio). Briefly, naive CD4^+ T cells isolated from 2 healthy human donors were propagated for 6 days in growth medium supplemented with Dynabeads Human T-Activator CD3/CD28 (25 μl/10^6 cells) and Th17 polarizing cytokines: TGF-β1 (5 ng/ml), IL-4 (10 ng/ml), IFNγ (10 ng/ml), IL-1β (10 ng/ml), IL-6 (30 ng/ml), IL-23 (50 ng/ml), IL-8 (15 ng/ml), IL-10 (10 ng/ml). […]. Reactivation of HIV-1 proviruses from latently infected cells was performed by treatment with Dynabeads Human T-Activator CD3/CD28 (25 μl/10^6 cells) or PMA/Ionomycin.
We next addressed if treatment with anti-BTN3A antibodies reverses BTN3A-mediated blockade in T cell activation. To assess this, sterile 96-well flat bottom tissue culture plates (Corning) were coated with various concentrations of anti-CD3 and anti-BTN3 20.1 antibodies (10 μg/ml, 3 μg/ml, 1 μg/ml, and 0.3 μg/ml) in PBS for 16 h in a 4° C. refrigerator. As controls, plates were coated with various concentrations of anti-CD3 antibody and isotype control antibody (10 μg/ml, 3 μg/ml, 1 μg/ml, and 0.3 μg/ml), anti-CD3 antibody alone, or isotype control antibody alone. The next day, antibodies were aspirated using a multichannel pipette and HIV latent primary CD4+ T cells from two donors were added to the antibody coated plates in duplicates at 125,000 cells/well in 200 ul of primary cell media (RPMI with 10% FBS, 50 μg/ml Primocin™). At 72 h following treatment T cell activation was measured based on IFNγ expression using a V-PLEX proinflammatory panel 1 human assay (Meso Scale Discovery, Rockville, Md.) (FIG. 4).
(§2) Using the protocols described in detail in Example 2B and Example 3A, anti-BTN3A antibodies were screened for a functional role in T cell activation and reactivation of latent HIV. Antibody screens were conducted using HIV latent CD4+ T cells (prepared as described in Example 1A). T cell activation was quantified by production of IFNγ, and reactivation of latent HIV was quantified by luciferase assay. […] Detailed information on binding profile with binding affinity (KD) (Table 4) and antibody isotype and sequence (Table 5) are provided for two representative antibodies from each of the three functional categories observed.

BTN3A3 = target: T1, BTN3A3 (Homo sapiens, UniProt O00478); assay: BTN isoform binding of yeast display antibodies (Octet isoform binding profile, binding affinity); conditions: Table 4; Yes/No; hIgG1-297A isotype
T1 construct: Fc (Fc-chimera); purchased R&D systems; host or cells: HEK293
Experimental: (§3) De novo antibody discovery for butyrophilin isoforms was executed on pre-immune yeast display libraries. The soluble proteins used in the yeast display selections were biotinylated recombinant proteins of HEK293-expressed Fc-chimeras BTN2A2, BTN3A1, BTN3A2, and BTN3A3 from R&D systems. All proteins were analyzed before use by Biacore binding against control antibody anti-BTN Monoclonal Antibody (eBioBT3.1 (20.1, BT3.1), SEC, SDS-PAGE, and endotoxin.
(§4) Each biotinylated BTN isoform was subjected to pre-immune yeast display libraries for selections. The selections started with MACS (Magnetic Bead-based Cell Separation) cell separations for the first two rounds to enrich clones that bind to the targeted BTN isoforms, and applied fluorescence activated cell sorting (FACS) at later rounds to isolate clones that were with high affinity and isoform specificity. Due to the high sequence homology among all BTN isoforms, isoform-specific selection pressures were achieved by introducing ten-fold molar ratio of the non-biotinylated BTN isoforms to the biotinylated and selection-targeted BTN isoforms in the later rounds of the selections.
(§5) The isolated clones were then sequenced to identify the unique antibodies and screened for isoform binding profiles by Octet. To ensure the isolated antibodies have broad-epitopic coverage, all the antibodies were subjected to binning against the benchmark antibodies: BTN20.1 (Biolegend, agonist) and BTN103.2 (Creative Biolabs, antagonist). Purified antibodies were submitted for functional assay screening, as described below.
(§6) Given the sequence homology between BTN3A isoforms (>90%), this outcome is expected. Within all 105 antibodies from the BTN3A1 campaign and 125 antibodies from the BTN3A2 campaign, each antibody was characterized into one of the bins: Biolegend-bin, Creative-Biolabs-bin, Empty Set, or Overlapping.
as §2

BTN3A1 = target: T2, BTN3A1 (Homo sapiens, UniProt O00481); assay: as above; conditions: Table 4; Yes/No; hIgG1-297A isotype
T2 construct: Fc (Fc-chimera); purchased R&D systems; host or cells: HEK293
Experimental: as §3, §4, §5, §6, §2

BTN3A2 = target: T3, BTN3A2 (Homo sapiens, UniProt P78410); assay: as above; conditions: Table 4; Yes/No; hIgG1-297A isotype
T3 construct: Fc (Fc-chimera); purchased R&D systems; host or cells: HEK293
Experimental: as §3, §4, §5, §6, §2

[2] = system: latent HIV in HIV latent primary CD4+ T cells; assay: Latent virus reactivation by plate-coated anti-BTN3A antibody plus anti-CD3, Nano-Glo Luciferase Assay; type: cell-based, HIV-1; conditions: with anti-CD3, Yes/No
Experimental: as §1
To assess if BTN3A modulation has impact on HIV latency reversal, sterile 96-well flat bottom tissue culture plates (Corning) were coated with various concentrations of anti-CD3 and anti-BTN3 20.1 antibodies (10 μg/ml, 3 μg/ml, 1 μg/ml, and 0.3 μg/ml) in PBS for 16h in a 4° C. refrigerator. As controls, plates were coated with various concentrations of anti-CD3 antibody and isotype control antibody (10 μg/ml, 3 μg/ml, 1 μg/ml, and 0.3 μg/ml), anti-CD3 antibody alone, or isotype control antibody alone. The next day, antibodies were aspirated using a multichannel pipette and HIV latent primary CD4+ T cells from two donors were added to the antibody coated plates in duplicates at 125,000 cells/well in 200 ul of primary cell media (RPMI with 10% FBS, 50 μg/ml Primocin™). At 24 h post treatment latent virus reactivation was measured using a Nano-Glo® Luciferase Assay (Promega) (FIG. 5).
as §2

T2 sequence (O00481 with tags, fused parts or gaps limits assumed): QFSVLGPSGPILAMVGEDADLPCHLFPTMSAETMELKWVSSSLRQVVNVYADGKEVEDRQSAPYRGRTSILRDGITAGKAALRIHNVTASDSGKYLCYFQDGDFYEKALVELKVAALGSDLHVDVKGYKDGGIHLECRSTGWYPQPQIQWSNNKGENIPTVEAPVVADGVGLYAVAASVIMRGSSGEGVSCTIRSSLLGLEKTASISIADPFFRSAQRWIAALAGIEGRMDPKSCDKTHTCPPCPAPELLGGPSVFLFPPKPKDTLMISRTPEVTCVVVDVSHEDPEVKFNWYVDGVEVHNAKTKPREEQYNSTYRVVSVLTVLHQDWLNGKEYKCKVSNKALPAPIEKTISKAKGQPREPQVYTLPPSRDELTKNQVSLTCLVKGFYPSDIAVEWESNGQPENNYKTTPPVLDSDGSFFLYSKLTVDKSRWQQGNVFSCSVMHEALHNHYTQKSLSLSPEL
T1 sequence (O00478 with tags, fused parts or gaps limits assumed): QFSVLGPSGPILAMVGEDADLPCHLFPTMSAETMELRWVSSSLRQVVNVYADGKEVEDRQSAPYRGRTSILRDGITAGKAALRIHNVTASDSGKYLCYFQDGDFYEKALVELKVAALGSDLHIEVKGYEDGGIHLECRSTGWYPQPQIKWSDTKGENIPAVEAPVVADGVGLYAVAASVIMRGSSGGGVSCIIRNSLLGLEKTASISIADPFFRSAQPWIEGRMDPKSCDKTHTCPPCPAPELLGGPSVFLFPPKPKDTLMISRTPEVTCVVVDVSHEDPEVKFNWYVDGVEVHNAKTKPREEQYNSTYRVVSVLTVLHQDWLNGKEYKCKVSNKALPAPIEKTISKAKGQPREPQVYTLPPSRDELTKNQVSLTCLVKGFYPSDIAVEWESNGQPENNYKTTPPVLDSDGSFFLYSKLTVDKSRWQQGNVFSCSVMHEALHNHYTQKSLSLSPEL
T3 sequence (P78410 with tags, fused parts or gaps limits assumed): as the sequence (O00478 with tags, fused parts or gaps limits assumed) above, with R37K, D120N, I123V, K149Q, D152N, T153A, A174E, S184G, G187E counted along it

Molecule	Antibody function T cell activation [1]	BTN3A3 Binding (BTN3A3)	BTN3A1 Binding (BTN3A1)	BTN3A2 Binding (BTN3A2)	Antibody function HIV reactivation [2]
B1	Yes	Yes	Yes	No	Yes
B2	Yes	Yes	Yes	Yes	No
B3	Yes	Yes	Yes	Yes	Yes
B4	No	Yes	Yes	No	Yes
